Reference: patent US20060229273A1

Molecular target: hKGF receptor on the surface of PC-3 prostatic carcinoma cells (UniProt P21802)
Assay: saturation binding of 125I-hKGF on PC-3 cells, Scatchard analysis

specific hKGF binding sites per cell (sites per cell): 5000
B1: Recombinant human Keratinocyte Growth Factor (hKGF) (ligand, UniProt P21781 32-194, looked up)
chain: CNDMTPEQMATNVNCSSPERHTRSYDYMEGGDIRVRRLFCRTQWYLRIDKRGKVKGTQEMKNNYNIMEIRTVAVGIVAIKGVESEFYLAMNKEGKLYAKKECNEDCNFKELILENHYNTYASAKWTHNGGEMFVALNQKGIPVRGKKTKKEQKTAHFLPMAIT
